Test results published in US20050036942A1 (Genentech, published 2005).

T1: murine PSCA (mPSCA) (murine, UniProt P57096 21-95)
T1 construct: also called muPSCA; his Mu PSCA - E. coli
T1 sequence (looked up): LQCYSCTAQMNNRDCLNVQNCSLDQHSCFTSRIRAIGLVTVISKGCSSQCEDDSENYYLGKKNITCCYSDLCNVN

B1: anti-PSCA monoclonal antibody 5F2.4H4.1E3 (antibody, V domains shown)
VH: QVQVQQPGAELVKPGAPVKLSCKASGYTFTNYWLNWVKQRPGRGLEWIGRIDPSDSEIHYDQKFKDKATLTVDKSSSTAYIQLSSLTSEDSAVYYCALTGIYAMAYWGQGTSVTVSS
VL: DIVMTQAAPSVPVTPGESVSISCRSSKSLLHSNGNTYLYWFLQRPGQSPQLLIYRMSNLASGVPDRFSGSGSGTAFTLRISRVEAEDVGVYYCLQHLEYPYTFGGGTKLELKR
B2: anti-PSCA monoclonal antibody 6B8.1D7.2B3 (antibody, V domains shown)
VH: EVQLQQSGPDLEKPGASVKISCKPSGNSFTGYYIHWVKQSHGKSLEWIGRVDPNNGFTSYNQKFKGKAILTVDKSSSTAYMELRSLTSEDSAVYYCVGNFFDSWGQGTTLTVSS
VL: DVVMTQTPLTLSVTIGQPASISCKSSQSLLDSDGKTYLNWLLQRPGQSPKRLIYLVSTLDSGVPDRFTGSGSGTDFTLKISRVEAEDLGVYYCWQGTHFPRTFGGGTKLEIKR
notes: also called Asc# 2761; #2761

Tests used:
[1] = biological target: gD-tagged human PSCA expressed on transfected cells (Herpes Simplex virus; human, UniProt O43653 12-91)
murine PSCA (mPSCA) = biological target: T1, murine PSCA (mPSCA); test: direct ELISA, antigen coated at 1 µg/ml
Experimental: HuPSCA and murine PSCA (mPSCA) were coated overnight at 1 μg/ml onto a microtiter plate (Nunc). The anti-PSCA Mab and controls were added to the antigen-coated wells and incubated at room temperature. Unbound antibody was washed off and a horseradish peroxidase (HRP)-conjugated secondary antibody was added to the wells and incubated with the antibodies at room temperature. OPD substrate solution was finally added and concentrated sulfuric acid was used to stop the reaction. The plate was read at 492 nm using a microtiter plate reader.

| Binder | IC50 [1] [nM] | binding result (murine PSCA (mPSCA)) |
| --- | --- | --- |
| B1 | 13 | – |
| B2 | – | no binding |
